Laboratory results from IntAct's records for PubMed 16325581.

B1: SH3 domain-binding protein 4 (Homo sapiens), Q9P0V3 (parent)
chain: MAAQRIRAANSNGLPRCKSEGTLIDLSEGFSETSFNDIKVPSPSALLVDNPTPFGNAKEVIAIKDYCPTNFTTLKFSKGDHLYVLDTSGGEWWYAHNTTEMGYIPSSYVQPLNYRNSTLSDSGMIDNLPDSPDEVAKELELLGGWTDDKKVPGRMYSNNPFWNGVQTNPFLNGNVPVMPSLDELNPKSTVDLLLFDAGTSSFTESSSATTNSTGNIFDELPVTNGLHAEPPVRRDNPFFRSKRSYSLSELSVLQAKSDAPTSSSFFTGLKSPAPEQFQSREDFRTAWLNHRKLARSCHDLDLLGQSPGWGQTQAVETNIVCKLDSSGGAVQLPDTSISIHVPEGHVAPGETQQISMKALLDPPLELNSDRSCSISPVLEVKLSNLEVKTSIILEMKVSAEIKNDLFSKSTVGLQCLRSDSKEGPYVSVPLNCSCGDTVQAQLHNLEPCMYVAVVAHGPSILYPSTVWDFINKKVTVGLYGPKHIHPSFKTVVTIFGHDCAPKTLLVSEVTRQAPNPAPVALQLWGKHQFVLSRPQDLKVCMFSNMTNYEVKASEQAKVVRGFQLKLGKVSRLIFPITSQNPNELSDFTLRVQVKDDQEAILTQFCVQTPQPPPKSAIKPSGQRRFLKKNEVGKIILSPFATTTKYPTFQDRPVSSLKFGKLLKTVVRQNKNHYLLEYKKGDGIALLSEERVRLRGQLWTKEWYIGYYQGRVGLVHTKNVLVVGRARPSLCSGPELSTSVLLEQILRPCKFLTYIYASVRTLLMENISSWRSFADALGYVNLPLTFFCRAELDSEPERVASVLEKLKEDCNNTENKERKSFQKELVMALLKMDCQGLVVRLIQDFVLLTTAVEVAQRWRELAEKLAKVSKQQMDAYESPHRDRNGVVDSEAMWKPAYDFLLTWSHQIGDSYRDVIQELHLGLDKMKNPITKRWKHLTGTLILVNSLDVLRAAAFSPADQDDFVI
partner: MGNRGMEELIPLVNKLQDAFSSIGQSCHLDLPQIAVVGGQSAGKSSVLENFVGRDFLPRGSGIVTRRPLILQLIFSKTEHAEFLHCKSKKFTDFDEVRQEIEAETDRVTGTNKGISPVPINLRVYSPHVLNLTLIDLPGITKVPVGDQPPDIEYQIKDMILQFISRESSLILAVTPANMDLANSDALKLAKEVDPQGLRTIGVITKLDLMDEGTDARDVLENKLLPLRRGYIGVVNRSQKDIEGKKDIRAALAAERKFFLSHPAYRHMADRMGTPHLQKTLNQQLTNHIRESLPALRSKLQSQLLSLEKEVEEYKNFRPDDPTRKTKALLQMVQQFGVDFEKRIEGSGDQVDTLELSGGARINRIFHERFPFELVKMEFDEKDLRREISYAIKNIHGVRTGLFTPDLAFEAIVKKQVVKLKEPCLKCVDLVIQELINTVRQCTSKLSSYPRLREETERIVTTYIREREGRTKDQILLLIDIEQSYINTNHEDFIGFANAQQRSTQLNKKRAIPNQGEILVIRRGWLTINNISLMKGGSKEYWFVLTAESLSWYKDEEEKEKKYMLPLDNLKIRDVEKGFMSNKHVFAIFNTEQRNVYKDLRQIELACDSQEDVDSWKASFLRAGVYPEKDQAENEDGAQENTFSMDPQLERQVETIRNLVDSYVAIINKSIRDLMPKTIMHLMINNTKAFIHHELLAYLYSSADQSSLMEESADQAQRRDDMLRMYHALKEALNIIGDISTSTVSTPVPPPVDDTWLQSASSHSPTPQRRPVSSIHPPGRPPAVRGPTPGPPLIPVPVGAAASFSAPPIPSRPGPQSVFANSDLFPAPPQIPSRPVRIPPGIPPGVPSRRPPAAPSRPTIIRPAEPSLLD
B2: SH3 domain-binding protein 4 (Homo sapiens), Q9P0V3 (parent)
chain: B1 chain

Variants of: B1
Conditions: with dyn2_human DNM2, P50570

Variant	effect of a mutation on the interaction
W92A	disrupting interaction

Variants of: B2
Conditions: with tfr1_human TFRC

Variant	effect of a mutation on the interaction
W92A	disrupting interaction
